The values that follow come from patent US20260116991A1.

Values joined by “and” are separate entries in the source; they are usually repeats but may differ in a detail not shown here. Identical values can stand only once.

Assay [1] deals with human GPC3-His protein (human) (UniProt P51654). Nature of the assay: ELISA, coated human GPC3, antibody 0.0001 nM. (In general: An ELISA detects its analyte on a solid surface through an enzyme-linked reagent.)
Assay [2] has the same target. Nature of the assay: ELISA, coated human GPC3, antibody 1 nM.
The target is the same in assay [3]. Kind of assay: ELISA, coated human GPC3, antibody 0.01 nM.
The target in assay [4] is GPC3 endogenously expressed on HepG2 cells (UniProt P51654). Nature of the assay: FACS on HepG2 cells.
In assay [5] the target is human GPC3-His protein (human) (UniProt P51654). Nature of the assay: ELISA, coated human GPC3, antibody 10 nM.
For assay [6] the target is unchanged. Kind of assay: ELISA, coated human GPC3, antibody 100 nM.
Assay [7] has the same target. Nature of the assay: ELISA, coated human GPC3, antibody 0.001 nM.
Assay [8] shares this target. Kind of assay: ELISA, coated human GPC3, antibody 0.1 nM.
Assay [9] addresses human GPC3 expressed on CHO-K1 recombinant cells (human) (UniProt P51654). Kind of assay: FACS on CHO-K1 clone CHOK1-hGPC3.3E9.
The target in assay [10] is murine GPC3-His protein (Sino Biological, Cat. No. 50989-M08B) (murine) (UniProt Q8CFZ4). Nature of the assay: ELISA, coated murine GPC3-His.
Chain of murine GPC3-His protein (Sino Biological, Cat. No. 50989-M08B) (murine) (Q8CFZ4 25-558 limits assumed): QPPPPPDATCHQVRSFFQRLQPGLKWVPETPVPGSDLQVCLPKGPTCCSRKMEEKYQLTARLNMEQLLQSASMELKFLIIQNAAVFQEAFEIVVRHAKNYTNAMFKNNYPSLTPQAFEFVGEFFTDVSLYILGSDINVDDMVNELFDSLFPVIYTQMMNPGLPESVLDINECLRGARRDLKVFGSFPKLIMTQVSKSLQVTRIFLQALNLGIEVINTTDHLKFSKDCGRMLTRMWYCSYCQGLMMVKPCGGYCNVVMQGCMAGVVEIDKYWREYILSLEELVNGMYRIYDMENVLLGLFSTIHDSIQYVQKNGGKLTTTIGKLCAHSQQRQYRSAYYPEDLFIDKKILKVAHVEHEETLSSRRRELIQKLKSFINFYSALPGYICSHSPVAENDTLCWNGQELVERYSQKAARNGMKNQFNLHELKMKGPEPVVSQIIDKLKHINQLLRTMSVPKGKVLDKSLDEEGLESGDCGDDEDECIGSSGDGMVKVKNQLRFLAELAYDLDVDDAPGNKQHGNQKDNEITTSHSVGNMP
For assay [11], the target named is human GPC3-His protein (Acro, Cat. No. GP3-H52H4) (human) (UniProt P51654). Kind of assay: ELISA, coated human GPC3-His.
Assay [12] concerns the target monkey GPC3-His protein (Acro, Cat. No. GP3-C5225) (monkey). Nature of the assay: ELISA, coated monkey GPC3-His.
The target of assay [13] is GPC3 expressed endogenously on HepG2 cells (UniProt P51654). Nature of the assay: FACS on HepG2 cells, control in the row of Y035.
Assay [14] concerns the target human GPC3 expressed on CHO-K1 recombinant cells (human) (UniProt P51654). Nature of the assay: FACS on CHO-K1 clone CHOK1-hGPC3.1C3.
Assay [15] shares this target. Nature of the assay: FACS on CHO-K1 clone CHOK1-hGPC3.2B5.
For assay [16], the target named is GPC3 expressed endogenously on HepG2 cells (UniProt P51654). Kind of assay: FACS on HepG2 cells, control in the row of T2-23.
For assay [17], the target named is GPC3 on HepG2 cells (human) (UniProt P51654). Nature of the assay: FACS on HepG2 cells.

In the case of “hIgG1 (IgG subtype control, human IgG1) (antibody)”, the OD450 nm in assay [1] amounted to 0.09 OD450; in [2], 0.09 OD450; in [3], 0.09 OD450; in assay [5] it was 0.09 OD450; in assay [6] it was 0.11 OD450; in assay [7], 0.09 OD450. Further, in assay [8], the OD450 nm amounted to 0.09 OD450. For the same substance, in assay [4], the Max MFI is 154 MFI and 258 MFI and 110 MFI.

As for hIgG1 (antibody), in [9], the Mean fluorescence intensity of cells amounted to 19.3 MFI. In assay [10], the OD450 at 0.0001 nM antibody worked out at 0.049 OD450, the OD450 at 0.001 nM antibody was found to be 0.051 OD450, the OD450 at 0.01 nM antibody was determined as 0.052 OD450 and the OD450 at 0.1 nM antibody is 0.05 OD450. In assay [10], this substance registered an OD450 at 1 nM antibody of 0.05 OD450, an OD450 at 10 nM antibody of 0.055 OD450 and an OD450 at 100 nM antibody of 0.105 OD450. Moreover, in assay [11], the OD450 at 0.0001 nM antibody worked out at 0.047 OD450, the OD450 at 0.001 nM antibody came to 0.048 OD450, the OD450 at 0.01 nM antibody was found to be 0.048 OD450 and the OD450 at 0.1 nM antibody amounted to 0.05 OD450. Besides, in assay [11], the OD450 at 1 nM antibody is 0.048 OD450, the OD450 at 10 nM antibody worked out at 0.05 OD450 and the OD450 at 100 nM antibody was determined as 0.072 OD450. In [12], this substance had an OD450 at 0.0001 nM antibody of 0.048 OD450, an OD450 at 0.001 nM antibody of 0.044 OD450, an OD450 at 0.01 nM antibody of 0.044 OD450 and an OD450 at 0.1 nM antibody of 0.045 OD450. In assay [12], the OD450 at 1 nM antibody came to 0.044 OD450, the OD450 at 10 nM antibody was determined as 0.047 OD450 and the OD450 at 100 nM antibody was found to be 0.056 OD450. The substance further returned a Mean fluorescence intensity of cells in assay [13] of 137 MFI. The Mean fluorescence intensity of cells in assay [14] was determined as 19.3 MFI. Also, in assay [15], the Mean fluorescence intensity of cells worked out at 19.3 MFI. Further, the Mean fluorescence intensity of cells in [16] worked out at 137 MFI.

In [10], hIgG1 control (antibody) yielded an OD450 at 0.0001 nM antibody of 0.06 OD450 nm, an OD450 at 0.001 nM antibody of 0.05 OD450 nm, an OD450 at 0.01 nM antibody of 0.05 OD450 nm and an OD450 at 0.1 nM antibody of 0.06 OD450 nm. In assay [10], this substance yielded an OD450 at 1 nM antibody of 0.05 OD450 nm, an OD450 at 10 nM antibody of 0.06 OD450 nm and an OD450 at 100 nM antibody of 0.12 OD450 nm.

On to hIgG (antibody), for which the Max MFI in assay [17] was 58.8.
